Numbering of substitutions follows the chain as printed. Names may count otherwise. “And” between values parts separate entries of the source, which are not always exact repeats. Equal values may be shown once.

This note sets out measurements from publication PMC2812701, “RelB and RelE of Escherichia coli Form a Tight Complex That Represses Transcription via the Ribbon–Helix–Helix Motif in RelB” (Journal of Molecular Biology, 2009).

Data set [1] has as its target RelB-Cys (E. coli) (UniProt P0C079). In words: SPR; Biacore 3000, CM5 chip; about 40 RU RelB-Cys immobilised by ligand thiol coupling; His6-RelE injected at 12.5-100 nM, 60 ul/min; HBS-EP (10 mM Hepes, 150 mM NaCl, 0.005% Tween 20, 3 mM EDTA, pH 7.4); 1:1 Langmuir fit; apparent Kd (koff/kon). (In general: SPR reads the build-up and loss of mass on a sensor chip optically.)

Data set [2] shares this target. The experiment in a line: SPR; Biacore 3000, CM5 chip; RelB-Cys immobilised by ligand thiol coupling; Lon-His6 injected at 200 nM with or without MgCl2 (8 mM) and ATP (2 mM), and at 12.5-100 nM (monomer) for kinetics; 60 ul/min; HBS-EP pH 7.4; apparent Kd.
Data set [3] addresses T1, HMK-RelB (E. coli) (UniProt P0C079).
T1 sequence (chain, 32P label on the N-terminal HMK-tag (RRASV)): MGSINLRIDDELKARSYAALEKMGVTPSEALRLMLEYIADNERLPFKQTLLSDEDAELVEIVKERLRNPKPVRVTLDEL

Data set [4] relates to RelB S28L;His6-RelE (Escherichia coli;Escherichia coli). In words: EMSA. Conditions: EMSA and footprint binding buffer as in an earlier paper (not given); footprint binding volume 35 ul, radical cleavage 37 C 1 min; native PAGE for EMSA. Background: Mobility shift assays separate free from complexed probe on a gel.
Data set [5] relates to RelB R7A;His6-RelE (Escherichia coli;Escherichia coli). The experiment in a line: EMSA. The conditions noted are these: EMSA and footprint binding buffer as in an earlier paper (not given); footprint binding volume 35 ul, radical cleavage 37 C 1 min; native PAGE for EMSA.
Data set [6] deals with RelB K13A;His6-RelE (Escherichia coli;Escherichia coli). The experiment in a line: EMSA. The conditions noted are these: EMSA and footprint binding buffer as in an earlier paper (not given); footprint binding volume 35 ul, radical cleavage 37 C 1 min; native PAGE for EMSA.
The target of data set [7] is T2, His6-RelE (E. coli, UniProt P0C077 1-95).
T2 construct: toxin RelE (mRNA interferase) of the relBE locus, Escherichia coli, wild type; also called co-repressor RelE; mRNA interferase RelE; source: also in cells, co-expressed with RelB; not shown: His6, N-terminal, kept
T2 sequence (looked up): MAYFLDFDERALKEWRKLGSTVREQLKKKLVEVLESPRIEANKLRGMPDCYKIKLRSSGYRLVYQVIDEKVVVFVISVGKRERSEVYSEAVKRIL
In words: other fluorescence titration; tryptophan fluorescence of His6-RelE (0.35 uM) titrated with RelB; 25 °C; phosphate-buffered saline pH 7.4; excitation 295 nm, emission about 330 nm. The conditions noted are these: both partners purified.

Data set [8] has as its target T2, His6-RelE. In words: amino acid analysis of the co-purified complex; purified RelB·RelE complex preformed in vivo (Table S2). The conditions noted are these: partners not purified.
Data set [9] concerns the molecule itself. The experiment in a line: cross-linking; chemical cross-linking of WT RelB and the mutated variants with BS3 [bis(sulfosuccinimidyl) suberate] (Fig. S1).

As usually defined, the koff is the first-order rate constant of dissociation. The kon is the rate constant with which the complex forms. “His6-RelE (from UniProt P0C077 1-95) (natural protein)”: in [1], the Kd came out at 0.33 nM, the in vitro half-life of the complex came out at 70 min, the koff is 0.000166 s⁻¹ and the kon turned out to be 501000 M⁻¹ s⁻¹.

With “Lon-His6 (from UniProt P0A9M0 1-784) (enzyme)”, in data set [2], the Kd is less than 2 nM and the dissociation rate constant (koff) came out at 0.000234 s⁻¹. The in vitro degradation of 32P-labelled HMK-RelB (0.13 uM) by Lon (0.6 uM) at 37 °C, ATP- and Mg2+-dependent, time course up to 120 min; in vitro half-life of HMK-RelB in data set [3] was more than 60 min.

For relO166 (Cy5), the K half in [4], in data set [5] and in [6] was more than 1250 nM throughout.

B1: RelB (wild type) (natural protein, E. coli, UniProt P0C079 1-79, looked up)
chain: T1 sequence (chain, 32P label on the N-terminal HMK-tag (RRASV))
notes: antitoxin RelB of the relBE locus, Escherichia coli, wild type; also called WT RelB; antitoxin RelB; source: also in cells, co-expressed with His6-RelE
A word on the stoichiometry N: it is the number of molecules, sites or subunits per partner or assembly. Regarding B1, the “stoichiometry N” value in data set [7] was approximately 2 RelB/RelE; in data set [8], 2 RelB/RelE; in [9], 2 and 4.

B2: RelB^K13A (natural protein, E. coli, UniProt P0C079 1-79, looked up)
chain: T1 sequence (chain, 32P label on the N-terminal HMK-tag (RRASV)) with K13A
notes: antitoxin RelB, Escherichia coli, with K13A; also called RelB RHH variant K13A; source: also in cells, co-expressed with His6-RelE
Take B2: in data set [9], the binding result is “binds”.

B3: RelB^I8A (natural protein, E. coli, UniProt P0C079 1-79, looked up)
chain: T1 sequence (chain, 32P label on the N-terminal HMK-tag (RRASV)) with I8A
notes: antitoxin RelB, Escherichia coli, with I8A; also called RelB RHH variant I8A; source: also in cells, co-expressed with His6-RelE
In the case of B3, the “stoichiometry N” value in data set [9] was 2 and 4.

B4: RelB^R7A (natural protein, E. coli, UniProt P0C079 1-79, looked up)
chain: T1 sequence (chain, 32P label on the N-terminal HMK-tag (RRASV)) with R7A
notes: antitoxin RelB, Escherichia coli, with R7A; also called RelB RHH variant R7A; source: also in cells, co-expressed with His6-RelE
For the molecule B4, the binding result in [9] was “binds”.

B5: RelB^S28R (natural protein, E. coli, UniProt P0C079 1-79, looked up)
chain: T1 sequence (chain, 32P label on the N-terminal HMK-tag (RRASV)) with S28R
notes: antitoxin RelB, Escherichia coli, with S28R; also called RelB RHH variant S28R; source: also in cells, co-expressed with His6-RelE
For the molecule B5, the “stoichiometry N” value in data set [9] is 2 and 4.

B6: RelB^S28L (natural protein, E. coli, UniProt P0C079 1-79, looked up)
chain: T1 sequence (chain, 32P label on the N-terminal HMK-tag (RRASV)) with S28L
notes: antitoxin RelB, Escherichia coli, with S28L; also called RelB RHH variant S28L; source: also in cells, co-expressed with His6-RelE
On to B6, for which the “stoichiometry N” value in data set [9] is 2 and 4.
